Assay [1] has as its target T1, human IL-12 (human, UniProt P29460 23-328; P29459 23-219).
T1 construct: Recombinant (Peprotech); FLAG-tagged IL-12 in the flow cytometry assays, biotinylated in the IL-12Rβ2 assay; also called hIL-12
T1 sequence 1: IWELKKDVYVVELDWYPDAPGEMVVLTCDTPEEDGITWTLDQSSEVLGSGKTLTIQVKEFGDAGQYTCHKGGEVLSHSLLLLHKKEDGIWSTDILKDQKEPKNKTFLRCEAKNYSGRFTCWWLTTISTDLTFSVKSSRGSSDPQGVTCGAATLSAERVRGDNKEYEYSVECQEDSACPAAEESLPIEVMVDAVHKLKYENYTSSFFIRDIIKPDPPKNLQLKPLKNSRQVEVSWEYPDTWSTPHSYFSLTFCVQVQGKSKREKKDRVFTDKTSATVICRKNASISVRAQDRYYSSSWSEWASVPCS
T1 sequence 2: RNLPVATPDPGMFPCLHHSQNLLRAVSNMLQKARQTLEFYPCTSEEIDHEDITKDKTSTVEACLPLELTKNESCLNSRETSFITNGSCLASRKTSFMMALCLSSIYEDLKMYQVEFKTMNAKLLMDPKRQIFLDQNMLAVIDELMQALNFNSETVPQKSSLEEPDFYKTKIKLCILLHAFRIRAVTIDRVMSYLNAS
As to the kind of experiment: ELISA, SPR. In general terms: In an ELISA, binding on a coated surface is turned into a signal by an enzyme label.

The target in assay [2] is T2, human IL-23 (human, UniProt P29460 23-328; Q9NPF7 20-189).
T2 construct: Recombinant (Ebioscience); HIS-tagged in flow cytometry, biotinylated in some assays; also called hIL-23; rhIL-23
T2 sequence 1: T1 sequence 1
T2 sequence 2: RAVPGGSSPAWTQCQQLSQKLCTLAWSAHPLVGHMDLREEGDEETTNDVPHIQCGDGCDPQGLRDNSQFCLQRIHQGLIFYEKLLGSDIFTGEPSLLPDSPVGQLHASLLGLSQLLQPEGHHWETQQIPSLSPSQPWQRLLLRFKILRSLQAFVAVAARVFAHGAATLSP
The experiment in a line: ELISA, SPR.

Assay [3] deals with T2, human IL-23. As to the kind of experiment: SPR, IgG; LOD estimated 1 × 10^-5 s^-1.
The target of assay [4] is T1, human IL-12. The experiment in a line: SPR, IgG. As for the experimental part: (§1) CU-A6 was converted to Antibody 183, CP-A6 was converted to Antibody 184 and AW-F2 was converted to Antibody 207 by addition of a human heavy chain Fc region (SEQ ID NO: 8) and a constant kappa light chain region (SEQ ID NO: 9). IgG molecules were expressed by co-transfecting the heavy and light chain construct for each antibody into HEK 293E cultures. The expressed IgGs were purified by affinity chromatography and gel exclusion and the resulting monomeric molecules were tested for IL-12 and IL-23 binding by SPR (TABLE 6). All three IgG variants retained binding activity against both analytes with a visible improvement in kd compared to the parental wild-type IgG. Based on this, it is reasonable to expect that scFv variants described in TABLE 4 could be converted to the IgG format and retain improved binding characteristics against IL-12 and IL-23.
(§2) Using a SPR 3000, Protein A was immobilized onto FC1 and FC2 (or alternatively FC3 and FC4) of a CM5 research grade sensor chip using amine coupling, giving approximately […] RU. FC1 was used a blank throughout the experiments. The experiments were run in HBS-P buffer (SPR). At a flow rate of 20 μl/min, 20 μl of 5 μg/mL of antibody was passed over FC2. IL-12, IL-23 or IL-12p40 (Peprotech) were passed over the surface of FC1 and FC2 at concentrations ranging from 66 nM to 2 nM. Regeneration of the surface was performed using 10 mM Glycine, pH 1.0. The sensorgram data from FC2 was subtracted from FC1 and a buffer only control. The curves were fitted using a 1:1 Langmuir equation to generate the kd, ka and KD values. All curves were fitted with a χ² of less then 2.0 where possible.
(SPR reads the build-up and loss of mass on a sensor chip optically.)

Assay [5] addresses T2, human IL-23. As to the kind of experiment: SPR, IgG. As for the experimental part: as §1, §2
Assay [6] addresses T1, human IL-12. The experiment in a line: SPR, purified scFv.
The target in assay [7] is T2, human IL-23. The experiment in a line: SPR screen, crude scFv captured via FLAG. The method in brief: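 Crude periplasmic FLAG-tagged scFvs were captured on an anti-FLAG surface (approx. 100 or 50 RU) in HBS-EP+ at 25 °C. IL-23 was injected for 120 s at 30 μl/min, with 200 s dissociation. Referenced sensorgrams were fitted to a 1:1 Langmuir model for ka, kd and KD.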

Assay [8] has as its target T1, human IL-12. As to the kind of experiment: SPR, purified scFv captured via FLAG. The method in brief:
(§3)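 FLAG-tagged scFvs (10 nM) captured to ~50 RU on anti-FLAG CM5 surface; HBS-EP+, 30 °C or 35 °C. IL-12 (81–0.13 nM, five-fold) or IL-23 (81–1 nM, three-fold) injected 180 s at 60 μl/min, dissociation 300 s (10 min top concentration). Double-referenced 1:1 Langmuir fit for ka, kd, KD.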

Assay [9] concerns the target T2, human IL-23. As to the kind of experiment: SPR, purified scFv captured via FLAG. The method in brief: as §3
For assay [10], the target named is T2, human IL-23. As to the kind of experiment: SPR, purified scFv captured via FLAG; LOD estimated 1 × 10^-5 s^-1. As for the experimental part:
A number of the scFv variants presented in TABLE 4 were selected for full characterization of binding kinetics, encompassing a broad range of mutation profiles and binding affinities. Large-scale protein expressions were carried out for each scFv. The expressed scFvs were purified as monomeric proteins and tested for binding against IL-12 and IL-23 by SPR (TABLE 5).
Purified scFvs were subjected to full kinetic characterization using a BIAcore T100 biosensor (GE Healthcare). Approximately 10,000 RU of the proprietry FLAG-specific capture molecule was immobilized on a CM5 Series S Sensor chip, using standard amine coupling chemistry in flow cells (FC) 1 and FC2 (or alternatively FC3 and FC4) of the BIAcore T100 Biosensor. The running buffer used was HBS-EP+ (BIAcore) and interactions measured at 30° C. or 35° C. to promote differentiation of scFvs with very similiar kd values. Peak purified FLAG-tagged scFvs (prepared as described in the previous paragraph) were diluted to 10 nM in running buffer, and captured on FC2 at a flow rate of 10 μl/min in order to capture 50 RU of scFv (typically 60 sec was sufficient to capture this level of tagged scFv). After an appropriate stabilization period, the target, IL-12 or IL-23, were passed over FC1 and FC2 at a flow rate of 60 μl/min at concentrations ranging from 81 nM to 0.13 nM (using a five-fold dilution of IL-12) and 81 nM to 1 nM (using a three-fold dilution of IL-23). The contact time for association was 180 sec and dissociation measured for 10 mins for the highest concentration and 300 sec for all other concentrations in the series. The sensorgram data from FC2 was subtracted from FC1 and a buffer only control. The curves were fitted using a 1:1 Langmuir equation to generate the kₐ, kd and KD values.

The values below come from patent US20110262445A1 (CEPHALON AUSTRALIA, published 2011).

B1: Antibody 50 (antibody, human IgG1, kappa, V domains shown)
VH: EVQLQQSGADLVRSGASIKLSCTASGFNIKDYYLHWVKQRPEQGLEWIGWIDPENGDTEYAPKFQGKATMTADTSSNTAYLQLSSLTSEDTAVYYCNANKELRYFDVWGAGTTVTVSS
VL: DIVLTQSPATLSVTPGDSVSLSCRASQSISINLHWYQQKSHESPRLLIKFASQSISGIPSRFSGYGSGTDFTLSINSVETEDFGRYFCQQSNSFPLTFGAGTKLELKR
notes: Optimized chimeric antibody (W94F, M34L, C95N)
For B1, the binding result with human IL-12 [1] and in the assay with human IL-23 [2] was “binds” each time.

B2: Antibody 183 (antibody, human IgG1, kappa, V domains shown)
VH: QVQLVQSGAEVKKPGASVKVSCKASGYTLTDYYLHWVRQAPGQGLEWMGWIDPENGDTEYAPKFQGRVTMTTDTSTSTAYMELRSLRSDDTAVYYCNANKELRYFDVWGQGAMVTVSS
VL: EIVMTQSPATLSVSPGERATLSCRASQSISINLHWYQQKPGQAPRLLIYFASQSISGIPARFFGSGSGTEFTLTISSLQSEDFAVYYCQQSNSFPLTFGGGTKVEIKR
notes: also called CU-A6 as IgG
On to B2, for which, in the assay with human IL-23 [3], the koff was less than 1e-05 s⁻¹. In the assay with human IL-12 [4], this molecule yielded a Kd of 65 pM, a koff of 0.00027 s⁻¹ and a kon of 4.1e+06 M⁻¹ s⁻¹. In the assay with human IL-23 [5], the Kd is no more than 2.7 pM and the kon came to 400000 M⁻¹ s⁻¹.

B3: scFv AW-F2 (scFv)
scFv: QVQLVQSGAEVKKPGASVKVSCKASGYTFTDYYLHWVRQAPGQGLEWMGWIDPENGDTESAPKFQGRVTMTTDTSTSTAYMELRSLRSDDTAVYYCNANKELRYFDVWGQGTMVTVSSGGGGSGGGGSGGGGSEIVMTQSPATLSVSPGERATLSCRASQSISINLHWYQQKPGQAPRLLIYFASQSISGIPARFSGSGSGTEFTLTISSLQSEDFAVYYCQQSNSFPLTFGGGTKVEIKR
notes: scFv-80 variant: VH Y59S; not shown: proprietary C-terminal FLAG tag
For the molecule B3, the “fold affinity improvement compared to parental scFv-80” value with human IL-12 [6] amounted to 5 fold. In addition, the koff is 0.00025 s⁻¹ in the assay with human IL-23 [7], 0.0001 s⁻¹ with human IL-12 [8] and less than 1e-05 s⁻¹ with human IL-23 [10]. Also, binding with human IL-12 [8] was characterised by a dissociation constant (Kd) of 46 pM. Further, the results for the kon in the assay with human IL-12 [8] and in the assay with human IL-23 [9] were 2.2e+06 M⁻¹ s⁻¹ and 350000 M⁻¹ s⁻¹, respectively.

As a reminder, the koff is the first-order rate constant of dissociation. Usually Kd stands for the equilibrium constant for the complex coming apart. The term kon denotes the second-order rate constant of association.
